Numbering of substitutions follows the chain as printed. Names may count otherwise.
B1: Cnn CM2 WT (GGS-H1082-L1148) (domain or fragment, Drosophila melanogaster)
chain: GGSHDCAKVDLENAELRRKLIRTKRAFEDTYEKLRMANKAKAQVEKDIKNQILKTHNVLRNVRSNMENEL
notes: GGS motif left at the N terminus after TEV cleavage; Centrosomin (Cnn), Drosophila, CM2 domain, aa1082-1148; The dimer holds a Zn2+ ion coordinated by H1082 and C1084; also called Cnn-motif 2 domain; Cnn_(1082-1148); source: E. coli C41 (DE3), purified (Ni-NTA, TEV cleavage, SEC); not shown: His-tagged lipoyl domain (Bacillus stearothermophilus dihydrolipoamide acetyltransferase), N-terminal, …
B2: CM2-I1126E (domain or fragment, Drosophila melanogaster)
chain: B1 chain with I48E
notes: GGS motif left after TEV cleavage, as told for the WT CM2 construct of the same vector; Centrosomin (Cnn), Drosophila, CM2 domain, aa1082-1148, I1126E; also called CM2 (aa1082-1148 I1126E); source: E. coli C41 (DE3), purified; not shown: His-tagged lipoyl domain (Bacillus stearothermophilus dihydrolipoamide acetyltransferase), N-terminal, cleaved
B3: CM2-L1137E (domain or fragment, Drosophila melanogaster)
chain: B1 chain with L59E
notes: GGS motif left after TEV cleavage, as told for the WT CM2 construct of the same vector; Centrosomin (Cnn), Drosophila, CM2 domain, aa1082-1148, L1137E; also called CM2 (aa1082-1148 L1137E); source: E. coli C41 (DE3), purified; not shown: His-tagged lipoyl domain (Bacillus stearothermophilus dihydrolipoamide acetyltransferase), N-terminal, cleaved
B4: CM2-T1133E (domain or fragment, Drosophila melanogaster)
chain: B1 chain with T55E
notes: GGS motif left after TEV cleavage, as told for the WT CM2 construct of the same vector; Centrosomin (Cnn), Drosophila, CM2 domain, aa1082-1148, T1133E; also called CM2 (aa1082-1148 T1133E); source: E. coli C41 (DE3), purified; not shown: His-tagged lipoyl domain (Bacillus stearothermophilus dihydrolipoamide acetyltransferase), N-terminal, cleaved
B5: Cnn LZ WT (GPM-D490-K544) (domain or fragment, Drosophila melanogaster)
chain: GPMDQQNSAVIGQLRLELQQARTEVETADKWRLECVDVCSVLTNRLEELAGFLNSLLK
notes: Centrosomin (Cnn), Drosophila, LZ domain, aa490-544; Homo-tetramer alone in solution; a parallel homo-dimer in the 2:2 complex with CM2; also called LZ domain; leucine zipper; source: E. coli B834 (DE3), purified (Ni-NTA, SEC; tag cleaved with GST-3C protease, reverse Ni-NTA, SEC); not shown: His6, N-terminal, cleaved; MBP, N-terminal, cleaved
B6: LZ-L535E (domain or fragment, Drosophila melanogaster)
chain: B5 chain with L49E
notes: N-terminal residues as printed for the WT LZ construct of the same vector; Centrosomin (Cnn), Drosophila, LZ domain, aa490-544, L535E; also called LZ (aa490-544 L535E); Cnn_(490-544) L535E; source: E. coli B834 (DE3), purified; not shown: His6, N-terminal, cleaved; MBP, N-terminal, cleaved
B7: MBP-PReM (domain or fragment, Drosophila melanogaster, UniProt P54623-2 403-608, looked up)
chain: QLQTEVKKKTANLQNLVNKELWEKNREVERLTKLLANQQKTLPQISEESAGEADLQQSFTEAEYMRALERNKLLQRKVDVLFQRLADDQQNSAVIGQLRLELQQARTEVETADKWRLECVDVCSVLTNRLEELAGFLNSLLKHKDVLGVLAADRRNAMRKAVDRSLDLSKSLNMTLNITATSLADQSLAQLCNLSEILYTEGDASH
notes: Centrosomin (Cnn), Drosophila, phospho-regulated multimerization (PReM) domain, aa403-608; also called MBP-PReM fusion; Cnn-PReM (aa403-608); source: E. coli B834 (DE3), purified (Ni-NTA, SEC); not shown: MBP, N-terminal, kept
B8: Cnn LZ (GPM-D490-L552) (domain or fragment, Drosophila melanogaster)
chain: GPMDQQNSAVIGQLRLELQQARTEVETADKWRLECVDVCSVLTNRLEELAGFLNSLLKHKDVLGVL
notes: source: E. coli, purified as complex with CM2; not shown: His6, N-terminal, cleaved; MBP, N-terminal, cleaved

Tests used:
[1] = biological target: the molecule itself; assay: SEC-MALS; S75 10/300 column; 50 mM Tris-HCl pH7.5, 150 mM NaCl, 10 μM ZnCl2, 5 mM β-mercaptoethanol; proteins alone or mixed
[2] = biological target: B1; assay: as above; conditions: both partners purified
[3] = biological target: the molecule itself; assay: SEC-MALS; Superose 6 column; MBP-PReM apo or with addition of CM2 WT or point mutants; 50 mM Tris-HCl pH7.5, 150 mM NaCl, 10 μM ZnCl2, 5 mM β-mercaptoethanol
[4] = biological target: B1; assay: crystal structure; LZ:CM2 complexes of various LZ lengths and LZ-L535E:CM2; sitting drops, 21°C; conditions: both partners purified

| Binder | stoichiometry N [1] | further results |
| --- | --- | --- |
| B1 | 2 | – |
| B2 | 2 | – |
| B3 | 2 | – |
| B4 | 2 | – |
| B5 | 4 | stoichiometry N [2]: 1 LZ per CM2 (printed as 2:2) |
| B6 | – | stoichiometry N [2]: 1 LZ per CM2 (printed as 2:2) |
| B7 | – | stoichiometry N [3]: 2 |
| B8 | – | binding result [4]: binds |

— PMC5457487, “Structural Basis for Mitotic Centrosome Assembly in Flies” (Cell, 2017)
